Assay results: patent publication US20230255948A1

Legend:
[1] = target: α9β1 integrin on mouse RAW macrophage cells (mouse) (UniProt B8JK39); assay: cell-based or functional assay
[2] = target: α4β1 integrin on mouse B16 melanoma cells and mouse RAW macrophage cells (mouse) (UniProt Q00651); assay: cell-based or functional assay
Sequence of α4β1 integrin on mouse B16 melanoma cells and mouse RAW macrophage cells (mouse) (Q00651 41-1039, chain 1 of 2): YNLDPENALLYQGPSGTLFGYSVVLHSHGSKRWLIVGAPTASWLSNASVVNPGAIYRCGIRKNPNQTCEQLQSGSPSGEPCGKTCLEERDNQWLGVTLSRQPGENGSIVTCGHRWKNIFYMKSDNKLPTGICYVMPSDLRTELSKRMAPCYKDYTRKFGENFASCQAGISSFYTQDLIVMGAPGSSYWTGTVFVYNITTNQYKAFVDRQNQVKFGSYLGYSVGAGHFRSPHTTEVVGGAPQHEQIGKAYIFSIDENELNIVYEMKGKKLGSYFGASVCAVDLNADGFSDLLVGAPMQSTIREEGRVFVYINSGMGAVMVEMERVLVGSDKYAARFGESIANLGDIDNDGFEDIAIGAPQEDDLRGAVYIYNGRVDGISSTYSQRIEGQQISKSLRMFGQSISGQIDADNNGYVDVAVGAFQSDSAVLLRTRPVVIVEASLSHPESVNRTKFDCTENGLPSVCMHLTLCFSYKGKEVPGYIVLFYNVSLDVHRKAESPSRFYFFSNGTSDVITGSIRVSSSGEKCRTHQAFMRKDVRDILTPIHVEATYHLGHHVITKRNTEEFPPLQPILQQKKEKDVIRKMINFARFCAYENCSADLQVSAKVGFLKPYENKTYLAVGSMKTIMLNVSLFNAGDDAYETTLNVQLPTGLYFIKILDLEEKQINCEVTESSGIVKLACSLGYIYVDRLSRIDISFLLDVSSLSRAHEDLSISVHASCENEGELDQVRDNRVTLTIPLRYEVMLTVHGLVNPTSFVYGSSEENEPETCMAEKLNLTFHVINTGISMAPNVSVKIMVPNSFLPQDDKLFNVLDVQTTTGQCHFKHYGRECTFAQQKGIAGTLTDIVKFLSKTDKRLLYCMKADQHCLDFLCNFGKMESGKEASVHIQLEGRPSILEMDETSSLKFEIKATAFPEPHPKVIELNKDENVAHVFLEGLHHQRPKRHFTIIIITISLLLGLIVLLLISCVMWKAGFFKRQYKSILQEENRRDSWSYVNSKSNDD
Sequence of α4β1 integrin on mouse B16 melanoma cells and mouse RAW macrophage cells (mouse) (P09055 21-798, chain 2 of 2, further chain): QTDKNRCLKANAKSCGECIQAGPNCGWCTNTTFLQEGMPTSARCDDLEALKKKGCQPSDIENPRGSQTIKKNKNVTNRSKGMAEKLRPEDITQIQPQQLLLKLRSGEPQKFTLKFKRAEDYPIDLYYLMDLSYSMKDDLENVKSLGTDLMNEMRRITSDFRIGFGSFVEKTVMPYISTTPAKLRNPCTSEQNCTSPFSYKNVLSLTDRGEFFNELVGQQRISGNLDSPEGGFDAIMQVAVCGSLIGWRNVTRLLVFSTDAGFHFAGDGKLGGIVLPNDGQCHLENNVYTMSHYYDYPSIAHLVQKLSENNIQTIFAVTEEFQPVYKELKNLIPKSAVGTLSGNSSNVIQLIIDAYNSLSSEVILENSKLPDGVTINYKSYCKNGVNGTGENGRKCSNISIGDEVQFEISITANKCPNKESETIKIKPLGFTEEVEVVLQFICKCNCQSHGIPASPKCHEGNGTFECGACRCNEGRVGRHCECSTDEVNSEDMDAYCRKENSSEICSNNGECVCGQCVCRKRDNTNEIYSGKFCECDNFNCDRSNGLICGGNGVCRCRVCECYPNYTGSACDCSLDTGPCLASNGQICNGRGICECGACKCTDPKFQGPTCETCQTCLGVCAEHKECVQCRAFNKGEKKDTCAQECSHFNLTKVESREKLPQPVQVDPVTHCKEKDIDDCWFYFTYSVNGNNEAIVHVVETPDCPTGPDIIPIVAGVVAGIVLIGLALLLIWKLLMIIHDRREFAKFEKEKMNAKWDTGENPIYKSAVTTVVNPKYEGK

Sequence of α9β1 integrin on mouse RAW macrophage cells (mouse) (B8JK39 29-1036, chain 1 of 2): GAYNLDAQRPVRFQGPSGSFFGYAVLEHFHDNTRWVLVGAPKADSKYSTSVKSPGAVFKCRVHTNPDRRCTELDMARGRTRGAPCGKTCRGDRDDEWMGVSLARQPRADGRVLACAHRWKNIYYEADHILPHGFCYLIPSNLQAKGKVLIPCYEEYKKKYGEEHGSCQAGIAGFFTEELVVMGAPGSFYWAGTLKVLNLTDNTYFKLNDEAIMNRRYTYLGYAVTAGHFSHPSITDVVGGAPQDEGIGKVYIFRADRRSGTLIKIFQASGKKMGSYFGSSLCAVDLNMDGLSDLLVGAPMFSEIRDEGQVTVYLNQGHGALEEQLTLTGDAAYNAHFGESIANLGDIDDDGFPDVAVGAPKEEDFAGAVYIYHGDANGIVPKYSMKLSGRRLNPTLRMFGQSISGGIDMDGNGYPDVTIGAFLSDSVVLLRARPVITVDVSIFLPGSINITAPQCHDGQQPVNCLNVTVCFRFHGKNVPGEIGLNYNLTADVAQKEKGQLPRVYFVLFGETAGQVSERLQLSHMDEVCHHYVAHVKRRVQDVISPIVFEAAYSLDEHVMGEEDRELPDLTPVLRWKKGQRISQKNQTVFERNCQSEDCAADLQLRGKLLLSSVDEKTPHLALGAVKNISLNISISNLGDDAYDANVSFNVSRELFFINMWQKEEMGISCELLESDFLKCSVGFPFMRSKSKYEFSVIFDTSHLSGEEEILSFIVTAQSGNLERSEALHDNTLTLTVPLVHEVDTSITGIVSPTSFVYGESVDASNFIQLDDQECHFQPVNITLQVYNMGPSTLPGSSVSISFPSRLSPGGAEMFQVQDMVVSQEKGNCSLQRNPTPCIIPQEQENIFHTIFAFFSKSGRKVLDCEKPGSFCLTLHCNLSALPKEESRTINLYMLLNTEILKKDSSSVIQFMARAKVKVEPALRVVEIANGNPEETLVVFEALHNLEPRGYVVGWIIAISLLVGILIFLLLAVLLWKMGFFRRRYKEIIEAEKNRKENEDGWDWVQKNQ
Sequence of α9β1 integrin on mouse RAW macrophage cells (mouse) (P09055 21-798, chain 2 of 2, further chain): as the sequence (P09055 21-798, chain 2 of 2, further chain) above

OPN-RRAA (OPN-R in which the RGD sequence has been mutated to RAA) (ligand)
PGE2 secretion in RAW cells [1]: 4.2 fold | PGE2 secretion in RAW cells [2]: 4.2 fold
